From patent US20230416380A1 (AJOU UNIVERSITY INDUSTRY ACADEMIC COOPERATION FOUNDATION, published 2023) come the findings set out here.

Experiment [1] deals with T1, sIL-5Rα (extracellular domain of human IL-5 receptor alpha subunit, Asp1-Asn313 of SEQ ID NO: 19, C-terminal Avi tag and 6×His tag, expressed in HEK293F) (human) (UniProt Q01344).
T1 sequence: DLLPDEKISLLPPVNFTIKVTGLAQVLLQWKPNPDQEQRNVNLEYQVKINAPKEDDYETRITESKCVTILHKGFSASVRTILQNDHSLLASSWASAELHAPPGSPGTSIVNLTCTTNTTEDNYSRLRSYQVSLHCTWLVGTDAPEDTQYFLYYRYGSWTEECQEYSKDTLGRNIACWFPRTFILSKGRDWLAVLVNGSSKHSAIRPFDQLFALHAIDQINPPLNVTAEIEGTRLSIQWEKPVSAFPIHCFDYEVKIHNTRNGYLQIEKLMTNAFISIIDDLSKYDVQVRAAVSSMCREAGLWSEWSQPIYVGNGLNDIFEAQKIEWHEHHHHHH
Put plainly: binding competition ELISA: IL-5-mFc coated (competitor), antibody dilutions plus 100 nM IL-5Rα, anti-his-HRP. Background: An ELISA detects its analyte on a solid surface through an enzyme-linked reagent.

Experiment [2] deals with T1, sIL-5Rα (extracellular domain of human IL-5 receptor alpha subunit, Asp1-Asn313 of SEQ ID NO: 19, C-terminal Avi tag and 6×His tag, expressed in HEK293F) (human). Put plainly: BLI (Octet QKe), antibody on AHC sensor, sIL-5Rα in solution, 1:1 model. In general terms: Biolayer interferometry detects binding as a change in optical thickness at a sensor tip.
The target of experiment [3] is T2, human IL-5Rα on cells (TF-1/IL-5Rα cells stably overexpressing IL-5Rα; human eosinophils) (human) (UniProt Q01344).
T2 sequence (looked up): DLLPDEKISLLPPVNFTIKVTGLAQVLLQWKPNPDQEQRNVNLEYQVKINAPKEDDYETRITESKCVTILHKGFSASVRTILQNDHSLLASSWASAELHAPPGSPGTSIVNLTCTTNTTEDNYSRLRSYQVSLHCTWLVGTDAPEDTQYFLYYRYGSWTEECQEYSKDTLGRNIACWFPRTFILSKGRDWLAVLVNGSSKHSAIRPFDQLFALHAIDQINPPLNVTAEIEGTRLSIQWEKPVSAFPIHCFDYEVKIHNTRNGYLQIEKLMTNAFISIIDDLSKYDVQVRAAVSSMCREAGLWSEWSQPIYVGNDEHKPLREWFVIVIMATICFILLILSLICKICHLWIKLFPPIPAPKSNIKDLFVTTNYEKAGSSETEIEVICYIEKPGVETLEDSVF
Put plainly: cell-based or functional assay.

Experiment [4] has as its target T3, sIL-5Rα (extracellular domain of human IL-5 receptor alpha subunit, Asp1-Asn313 of SEQ ID NO: 19, C-terminal … (human, UniProt Q01344 21-333)).
T3 construct: also called sIL-5Rα antigen protein
T3 sequence: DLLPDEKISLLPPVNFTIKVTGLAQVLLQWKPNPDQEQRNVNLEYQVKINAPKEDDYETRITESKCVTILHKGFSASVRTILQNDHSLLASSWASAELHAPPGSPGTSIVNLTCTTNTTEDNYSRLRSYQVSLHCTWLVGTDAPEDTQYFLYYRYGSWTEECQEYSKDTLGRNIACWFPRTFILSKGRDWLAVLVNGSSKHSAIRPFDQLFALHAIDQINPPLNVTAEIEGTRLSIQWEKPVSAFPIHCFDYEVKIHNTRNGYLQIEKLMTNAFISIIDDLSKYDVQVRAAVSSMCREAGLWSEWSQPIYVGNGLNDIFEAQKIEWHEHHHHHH
Nature of the experiment: BLI (Octet QKe), antibody on sensor, sIL-5Rα in solution, 1:1 model. As to the method: (§1) Specifically, 1× kinetic buffer was prepared by diluting 10× kinetic buffer (ForteBio, 18-1105) in PBS. […] Affinity was calculated with Octet Data Analysis software 11.0 in a 1:1 binding model.
(§2) Therefore, it was confirmed that the order of affinity was benralizumab>m2B7>hu2B7.

For experiment [5], the target named is T4, human IL-5Rα on cells (TF-1/IL-5Rα cells stably overexpressing IL-5Rα; human eosinophils) (human, UniProt Q01344 21-420).
T4 sequence (looked up): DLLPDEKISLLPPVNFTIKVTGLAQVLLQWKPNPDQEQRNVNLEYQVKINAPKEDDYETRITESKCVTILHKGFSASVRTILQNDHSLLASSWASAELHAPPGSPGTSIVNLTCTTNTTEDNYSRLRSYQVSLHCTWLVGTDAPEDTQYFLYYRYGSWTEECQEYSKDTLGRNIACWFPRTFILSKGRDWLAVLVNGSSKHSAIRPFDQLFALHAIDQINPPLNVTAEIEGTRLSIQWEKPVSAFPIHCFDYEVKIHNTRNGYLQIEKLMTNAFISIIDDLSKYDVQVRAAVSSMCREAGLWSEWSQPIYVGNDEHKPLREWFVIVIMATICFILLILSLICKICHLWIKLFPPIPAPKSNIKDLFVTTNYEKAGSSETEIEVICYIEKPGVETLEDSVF
Nature of the experiment: cell-based or functional assay.

Experiment [6] has as its target T3, sIL-5Rα (extracellular domain of human …). Put plainly: BLI (Octet QKe), comparison of KD values. As to the method:
as §1

Experiment [7] has the same target. Nature of the experiment: binding competition ELISA: IL-5-mFc coated (competitor), antibody dilutions plus 100 nM IL-5Rα, anti-his-HRP; 5R65 antibody; IL-5-mFc coated, 100 nM IL-5Rα, anti-his-HRP. As to the method: (§3) Prior to biological efficacy evaluation, binding competition ELISA was performed to determine whether or not anti-IL-5Rα humanized antibodies bind competitively with IL-5 to the IL-5 binding site of IL-5Rα. Specifically, IL-5 (Uniprot code: P05113, Ile20-Ser134) was fused to the G4S linker and the heavy-chain constant region (hinge-CH2-CH3) of mouse IgG2a, was subjected to transient transfection and purified (FIG. 5C). The purified IL-5-mFc proteins were immobilized at a density of 100 ng/well on a 96-well plate at room temperature for 1 hour, and blocked using 0.1% PBST containing 2% skim milk at room temperature for 1 hour. After discarding the solution and then washing the same three times with 0.1% PBST, mixtures of anti-IL-5a antibody [2-fold dilution at 2,000 nM] at various concentrations were prepared and each mixture was added in an amount of 25 μl/well to the blocked plate, 100 nM IL-5Rα was further added at 25 μl/well for 1 hour, followed by reaction at room temperature for 1 hour. […] After discarding the solution and washing three times with PBST, a TMB solution was added in an amount of 50 μl/well, color development was induced at room temperature for 2 minutes and 30 seconds, the reaction was stopped using H₂SO₄ (2N), and the absorbance at 450 nm was measured.

For experiment [8] the target is unchanged. Nature of the experiment: competition ELISA: IL-5-mFc coated at 100 ng/well, antibody dilution series mixed with His-tagged sIL-5Rα, bound sIL-5Rα detected with anti-His-HRP; blocked ligand IL-5-mFc.
For experiment [9] the target is unchanged. Put plainly: BLI (Octet QKe), antibody on AHC sensor, sIL-5Rα in solution, 1:1 model. As to the method: as §1
For experiment [10] the target is unchanged. Described as above. The protocol:
as §1, §2
The source holds these as a separate data set.

Experiment [11] has the same target. Put plainly: binding competition ELISA: IL-5-mFc coated (competitor), antibody dilutions plus 100 nM IL-5Rα, anti-his-HRP; 5R86 antibody; IL-5-mFc coated, 100 nM IL-5Rα, anti-his-HRP. As to the method: as §3

B1: benralizumab analogue (benralizumab variable regions with an IgG1 constant region) (antibody, INN chains, looked up, V domains shown)
VH: EVQLVQSGAEVKKPGASVKVSCKASGYTFTSYVIHWVRQRPGQGLAWMGYINPYNDGTKYNERFKGKVTITSDRSTSTVYMELSSLRSEDTAVYLCGREGIRYYGLLGDYWGQGTLVTVSS
VL: DIQMTQSPSSLSASVGDRVTITCGTSEDIINYLNWYQQKPGKAPKLLIYHTSRLQSGVPSRFSGSGSGTDFTLTISSLQPEDFATYYCQQGYTLPYTFGQGTKVEIK
modifications: fucosylated IgG1
B1: the IC50 (as a rule, the concentration that gives 50% inhibition) in experiment [1] came out at 9.8 nM. Further, in experiment [2], the Kd (in general, the free concentration of one partner at which half of the binding sites on the other are occupied at equilibrium, for simple one-to-one binding) is 26.8 nM; the koff (in general, the rate constant with which the complex falls apart) stood at 0.0011 s⁻¹; the kon – broadly, a measure of how fast the partners come together – turned out to be 41100 M⁻¹ s⁻¹. Moreover, in [3], the absolute IC50 (Abs IC50), inhibition of IL-5-dependent proliferation of TF-1/IL-5Rα cells is 1.99 nM.

B2: m2B7 (anti-IL-5Rα mouse antibody) (antibody, V domains shown)
VH: QVQLQQPGAELVRPGASVKLSCKASGYTFTSYWINWVKQRPGQGLEWIGHIYPSESYTNYNQKFKDKATLTVDKSSSTAYMQLSSPTSEDSAVYYCTRDYYGRSYYYAMDYWGQGTSVTVSS
VL: DIVMTQSHKFMSTSVGDRVSITCKASQNVGTAVAWYQQKPGQSPKLLIYWASTRHTGVPDRFTGSGSGTDFTFTISNVQSEDLADYFCQQFGRYPYTFGGGTKLEIK
notes: also called mouse antibody m2B7; mB7
In experiment [4], B2 gave a Kd of 40.2 nM, an off-rate (koff) of 0.000834 s⁻¹ and a kon of 20700 M⁻¹ s⁻¹.

B3: 5R65.7 (anti-IL-5Rα humanized antibody, affinity matured from 5R65) (antibody, V domains shown)
VH: QVQLVQSGAEVKKPGSSVKVSCKASGYTFTSYWINWVRQAPGQGLEWIGHIYPNKNENYYNHKFKDKATLTVDKSTNTAYMELSSLRSEDTAVYYCTREFYGRQYYQAMDYWGQGTTLTVSS
VL: DIQMTQSPSTLSASVGDRVTITCKASQNVGTAVAWYQQKPGKAPKLLIYWASTRHTGVPDRFSGSGSGTDFTLTISSLQPDDFATYYCQQFGRYPYTFGSGTKVEVK
B3: the “abs IC50, inhibition of IL-5-dependent proliferation of TF-1/IL-5Rα cells” value in experiment [5] stood at 0.57 nM.

B4: 5R65 (anti-IL-5Rα humanized antibody) (antibody, V domains shown)
VH: QVQLVQSGAEVKKPGSSVKVSCKASGYTFTSYWINWVRQAPGQGLEWIGHIYPNKNENYYNHKFKDKATLTVDKSTNTAYMELSSLRSEDTAVYYCTRDYYGRSYYYAMDYWGQGTTLTVSS
VL: DIQMTQSPSTLSASVGDRVTITCKASQNVGTAVAWYQQKPGKAPKLLIYWASTRHTGVPDRFSGSGSGTDFTLTISSLQPDDFATYYCQQFGRYPYTFGSGTKVEVK
notes: Only VH-CDR2 of hu2B7 was diversified, the light chain is that of hu2B7; also called 5R65 antibody
As to B4, in experiment [6], the “affinity relative to the benralizumab analogue” value is approximately 2 fold. Besides, the IC50 in experiment [7] was 9.5 nM.

B5: 5R68 (anti-IL-5Rα humanized antibody) (antibody, IgG1, V domains shown)
VH: QVQLVQSGAEVKKPGSSVKVSCKASGYTFTSYWINWVRQAPGQGLEWIGHIYPTATIAVYNDKFKDKATLTVDKSTNTAYMELSSLRSEDTAVYYCTRDYYGRSYYYAMDYWGQGTTLTVSS
VL: DIQMTQSPSTLSASVGDRVTITCKASQNVGTAVAWYQQKPGKAPKLLIYWASTRHTGVPDRFSGSGSGTDFTLTISSLQPDDFATYYCQQFGRYPYTFGSGTKVEVK
Consider B5, for which the IC50 in experiment [8] came out at 28.8 nM. In [9], this molecule had a Kd of 24.1 nM, a koff of 0.000566 s⁻¹ and a kon of 23500 M⁻¹ s⁻¹.

B6: 5R80 (anti-IL-5Rα humanized antibody) (antibody, IgG1, V domains shown)
VH: QVQLVQSGAEVKKPGSSVKVSCKASGYTFTSYWINWVRQAPGQGLEWIGHIYPQKTLTIYNHKFKDKATLTVDKSTNTAYMELSSLRSEDTAVYYCTRDYYGRSYYYAMDYWGQGTTLTVSS
VL: DIQMTQSPSTLSASVGDRVTITCKASQNVGTAVAWYQQKPGKAPKLLIYWASTRHTGVPDRFSGSGSGTDFTLTISSLQPDDFATYYCQQFGRYPYTFGSGTKVEVK
In the case of B6, the IC50 in experiment [8] came out at 24.2 nM. In experiment [9], this molecule showed a Kd of 16.2 nM, a koff of 0.000365 s⁻¹ and an on-rate (kon) of 22500 M⁻¹ s⁻¹.

B7: hu2B7 (humanized m2B7) (antibody, V domains shown)
VH: QVQLVQSGAEVKKPGSSVKVSCKASGYTFTSYWINWVRQAPGQGLEWIGHIYPSESYTNYNQKFKDKATLTVDKSTNTAYMELSSLRSEDTAVYYCTRDYYGRSYYYAMDYWGQGTTLTVSS
VL: DIQMTQSPSTLSASVGDRVTITCKASQNVGTAVAWYQQKPGKAPKLLIYWASTRHTGVPDRFSGSGSGTDFTLTISSLQPDDFATYYCQQFGRYPYTFGSGTKVEVK
notes: Expressed from plasmids encoding HC and LC and purified on protein A; also called humanized antibody hu2B7
B7 displayed an IC50 in [8] of 57.4 nM. In experiment [10], binding was characterised by a dissociation constant (Kd) of 47.8 nM, the koff was found to be 0.00106 s⁻¹ and the association rate constant (kon) worked out at 22200 M⁻¹ s⁻¹.

B8: 5R86 (anti-IL-5Rα humanized antibody) (antibody, IgG1, V domains shown)
VH: QVQLVQSGAEVKKPGSSVKVSCKASGYTFTSYWINWVRQAPGQGLEWIGHIYPTSSVKFYNNKFKDKATLTVDKSTNTAYMELSSLRSEDTAVYYCTRDYYGRSYYYAMDYWGQGTTLTVSS
VL: DIQMTQSPSTLSASVGDRVTITCKASQNVGTAVAWYQQKPGKAPKLLIYWASTRHTGVPDRFSGSGSGTDFTLTISSLQPDDFATYYCQQFGRYPYTFGSGTKVEVK
On to B8, for which the IC50 in experiment [11] was determined as 14.1 nM. Also, in experiment [9], the affinity, expressed as Kd, was 11.8 nM; the koff worked out at 0.000325 s⁻¹; the kon came out at 27600 M⁻¹ s⁻¹.
